Test results reported in patent US20230115257A1 (published 2023).

How the values were obtained:
[1] = target: SARS-CoV-2 (WIV02 isolate) prefusion stabilized spike trimer protein (UniProt P0DTC2 14-1213); assay: ELISA
SARS-CoV-1 spike protein = SARS-CoV-1 spike protein (SARS-CoV-1, UniProt P59594 14-1195); assay: ELISA

Row | Binder | IC50 [1] [nM] | IC50 (SARS-CoV-1 spike protein) [nM]
1 | 4-L4-A (antibody, V domains shown) VH: QAYLQQSGAELVRPGASVKMSCKASGYTFTSYTVHWVKQTPRQGLEWIGGIYPGNVDTSYNQNFKGKATLTVDKSSSTAYMQLSSLTSEDSAVYFCARDGYYAMDYWGQGTSVTVSS VL: not shown | 8.34 | –
2 | 3-E2-A (antibody, V domains shown) VH: EVQLQQSGPELVKPGASVKISCKASGYTFTDYYMNWVKQSHGKSLEWIGDINPNNGGTSYTQKFKGKATLTVDKSSSKAYMELRSLTSEDSAVYYCARRGDGHYGGFTYWGQGTLVTVSA VL: not shown | 18.4 | –
3 | 2-O12-A (antibody, V domains shown) VH: EVQLQQSGPELVKPGASVKISCKASGYTFTDYYMNWVKQSHGKSLEWIGDINSNNGGTTYDQKFKGKATLTVDRSSSTAYMELRSLTSEDSAVYYCARRGDGHFGGFTYWGQGTLVTVSA VL: not shown | 14.9 | –
4 | 8-L17-A (antibody, V domains shown) VH: EVQLVESGGGLVQPKGSLKLSCAASGFTFNTYAMHWVRQAPGKGLEWVARIRSKSSNYARYYADSVKDRFTISRDDSQSMLYLQMNNLKTEDTAMYYCVRDHDYYGSSYWFAYWGQGTLVTVSA VL: DVVMTQTPLSLPVSLGDQASISCRSSQSLVHNNGNTYLHWYLQKPGQSPKLLIYKVSNRFSGVPDRFSGSGSGTDFTLKISRVEAEDLGVYFCSQSTHVPWTFGGGTKLEIK | 60.8 | –
5 | 8-H3-A (antibody, V domains shown) VH: EVQLVESGGGLVQPKGSLKLSCAASGFTFNTYAMHWVRQAPGKGLEWVARIRSKSSNYATYYADSVKDRFTISRDDSQSMLYLQMNNLKTEDTAMYYCVRDHDYYGSSYWFTYWGQGTLVTVSA VL: DVVMTQTPLSLPVSLGDQASISCRSSQSLVHDNGNTYLHWFLQKPGQSPKLLIYKVSNRFSGVPDRFSGSGSGTDFTLKISRVETEDLGVYFCSQSTHVPWTFGGGTKLEIK | 19.4 | –
6 | 2-P2-A (antibody, V domains shown) VH: EVQLQQSGAELVRPGSSVKMSCKTSGYTFTSYGINWVKQRPGQGLEWIGYIYIGNGYTEYNEKFKGKATLTSDTSSSTAYMQLSSLTSEDSAIYFCARGGVDYWGQGTTLTVSS VL: DVLMTQTPLSLPVSLGDQASISCRSSQSIVHSNGNTYLEWYLQKPGQSPKLLIYKVSNRFSGVPDRFSGSGSGTDFTLKISRVEAEDLGVYYCFQGSHVPYTFGGGTKLEIK | – | 17.9
7 | 1-B11-A (antibody, V domains shown) VH: QVQLQQSGPELVKPGASVKISCKASGYTFTDHYINWVKQRPGQGLEWIGWIFPGSGSTYYNEQFKGKATLTVDKSSNTAYMLLSSLTSEDSAVYFCARSGGLRLGFAYWGQGTLVTVSA VL: DIQMTQTTSSLSASLGDRVTISCRASQDISNYLNWYQQKPDGTVKLLIYYTSRLHSGVPSRFSGSGSGTDYSLTISNLEQEDISTYFCQQVNTLPYTFGGGTKLEIK | – | 20.9
8 | 9-F6-A (antibody, V domains shown) VH: EVQLQQSGPELVKPGASVKMSCKASGYTFTSYIMHWVKQKPGQGLEWIGYILPYNDGTKYNEKFKGKATLTSDKSSSTAYMELRSLTSEDSAVYYCARWGYSNFLDSWGQGTTLTVSS VL: DIQMTQTTSSLSASLGDRVTISCRASQDINNYLNWYQQKPDGTVKLLIYYTSRLHSGVPSRFSGSGSGTDYSLTIRNLEQEDIATYFCQQGNTLPPTFGGGTKLEIK | 16.7 | 5.55
9 | 4-M3-A (antibody, V domains shown) VH: EVQLQQSGPELVKPGDSVKISCKASGYSFTGYFMNWVMQSHGKSLEWIGRINPNNGETFYNQKFKGKATLTVDKSSDTAHMELRSLTSEDSAVYYCARGGTGTGWGQGTTLTVSS VL: DILMTQSPSSMSVSLGDTVSITCHASQGISSNIGWLQQKPGKSFKGLIYYGTNLEDGVPSRFSGSGSGADYSLTISSLESEDLADYYCIQYAQFPYTFGGGTKLEIK | 7.36 | –
10 | 4-N22-A (antibody, V domains shown) VH: QVQLQQPGTELVKPGASVKLSCKASGYTFTNYWMYWVKQRPGQGLDWIGNINPSNGGTNYNEKFKSKATLTVDKSSSTAYMQLSSLTSEDSAVYYCARETGNYWGQGTTLTVSS VL: DILMTQSPSSMSVSLGDTVSISCHASQGISSNIGWLQQKPGKSFKGLIYHGTNLEDGVPSRFSGSGSGADYSLTISSLESEDFADYYCVQYAQFPYTFGGGTKLEIK | 4.93 | –
11 | 1-L10-A (antibody, V domains shown) VH: EVKLEESGGGLVQPGGSMKLSCVASGFTFNNYWMNWVRQSPEKGLEWVAQMRLKSDNYATHYAESVKGRFTISRDDSKSSVYLQMNNLRAEDTGIYYCIEGYWTYWGQGTLVTVSA VL: QIVLTQSPAIMSASLGERVTMTCTASSSVSSSYLHWYQQKPGSSPKLWIYSTSNLASGVPARFSGNGSGTSYSLTISSMEAEDAATYYCLQYHRSPPYTFGGGTKLEIK | 8.65 | 7.5
12 | 6-O12-A (antibody, V domains shown) VH: QVQLQQPGTELVKPGASVKLSCKASGYTFTSYWMHWVKQRPGQGLEWIGNINPSNGGTNYNEKFRSKATLTVDKSSSTAYMQLSSLTSEDSAVYYCARLGWFLPLGSWGQGTTLTVSS VL: QIVLTQSPAIMSASLGEVITLTCSASSSVSYMHWYQQKSGTSPKLLIYSTSNLASGVPSRFSGSGSGTFYSLTISSVEAEDAADYYCHQWSGYMYTFGGGTKLEIK | 7.62 | 5.4
13 | 8-H5-A (antibody, V domains shown) VH: QVTLKESGPGILQSSQTLSLTCSLSGFSLSTSGMGVSWVRQPSGKGLEWLAHIYWDDDKRYTPSLKSRLTISTDSSRKQVFLKITSVDTADTATYYCARRDLHDYDGWFAYWGQGTLVTVSA VL: DIVMTQSQKFMSTAVGDRVSVTCKASQNVGTNVAWYQQKPGQSPKALIYSASFRYSGVPDRFSGSGSGTDFTLTISNVQSEDLAEYFCQQYNSYPLTFGSGTKLEIK | 12.8 | –
14 | 2-G20-A (antibody, V domains shown) VH: EVQLQQSGPELVKPGASVKMSCKASGYTFPSYVLHWVKQKPGQGLEWIGYIYPYNDGTNYNEKFKGKATLTSDKSSSTAYMELSSLTSEDSAVYYCARGDYGDSAWFPYWGQGTLVTVSA VL: DIVLTQSPASLAVSLGQRATISCRASKSVSTSGYSYMHWYQQKPGQPPKLLIYLASNLKSGVPARFSGGGSGTDFTLNIHPVEEEDAATYYCQLSRELPWTFGGGTKLEIK | 18.3 | 6.65
15 | 2-H7-A (antibody, V domains shown) VH: QAYLQQSGAELVRPGASVKMSCKASGYTFTGYTMHWVKQTPRQGLEWIGAIYPENGDTSYNQKFKGKATLTVDKSSSTAYMQLSSLTSEDSAVYFCARDGYDVLYGMDYWGQGTSVTVSS VL: DIVLTQSPASLAVSLGQRATISCRASKSVSTSGYSYMHWYQQKPGQPPKLLIYLASNLESGVPARFSGSGSGTDFTLNIHPVEEEDAATYYCQHSRELPWTFGGGTKLDIK | 7.21 | –
16 | 8-A17-A (antibody, V domains shown) VH: QVQLKESGPGLVAPSQSLSITCTVSGFSLTSYAISWVRQPPGKGLEWLGVVWPGGGTNYNSALKSRLSINKDNSKSQVFLKMNSLQTDDTGRYYCARTGYHFDYWGQGTTLTVSS VL: QIVLTQSPAIMSASPGEKVTMTCSVSSSVSYMHWYQQKSGTSPKRWIYDTSKLASGVPARFSGSGSGTSYSLTISSMEAEDAATYYCQQWSSNPPMYTFGGGTKLEIK | – | 5.1
